The text below walks through data of patent US7811992B2, “Anti-infarction molecules” (Stasys Technologies, Inc., priority 2002, dated 2010).

For assay [1], the target named is T1, human angiotensin AT2 receptor (Homo sapiens, UniProt P50052).
T1 sequence (P50052 1-363): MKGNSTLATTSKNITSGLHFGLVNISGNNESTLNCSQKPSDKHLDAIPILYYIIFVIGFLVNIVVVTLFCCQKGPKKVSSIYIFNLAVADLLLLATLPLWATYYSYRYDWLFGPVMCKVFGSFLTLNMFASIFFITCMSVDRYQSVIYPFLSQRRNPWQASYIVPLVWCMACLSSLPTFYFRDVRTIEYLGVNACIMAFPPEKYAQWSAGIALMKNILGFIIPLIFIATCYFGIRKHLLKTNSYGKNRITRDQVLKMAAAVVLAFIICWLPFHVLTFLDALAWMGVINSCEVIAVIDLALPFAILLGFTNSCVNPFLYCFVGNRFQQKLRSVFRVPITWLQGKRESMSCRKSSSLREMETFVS
The conditions noted are these: for Activity/inhibition ATII binding assay: compounds screened at 10 μM, % inhibition of binding at the AT2 receptor; for nH: reference data, Hill coefficient; for inhibition at 10 µM: read-out: % Inhibition ATII receptor; for % Inhibition ATII receptor: screened at 10 μM.
Description: HeLa cells stably transfected with a plasmid encoding the human angiotensin AT2 receptor were used to prepare membranes in modified Tris HCl pH 7.4 by standard techniques. […] Non-specific binding was estimated in the presence of 10 μM. […] Compounds were screened at 10 μM. The ATII binding studies were performed essentially like that disclosed in Whitebread, S. E. et al., Radioligand CGP42112A: a novel high affinity and high selective ligand for the characterization of angiotensin AT2 receptors.

Assay [2] has as its target T2, Thyrotropin Releasing Hormone (Homo sapiens, UniProt P34981).
T2 sequence (P34981 1-398): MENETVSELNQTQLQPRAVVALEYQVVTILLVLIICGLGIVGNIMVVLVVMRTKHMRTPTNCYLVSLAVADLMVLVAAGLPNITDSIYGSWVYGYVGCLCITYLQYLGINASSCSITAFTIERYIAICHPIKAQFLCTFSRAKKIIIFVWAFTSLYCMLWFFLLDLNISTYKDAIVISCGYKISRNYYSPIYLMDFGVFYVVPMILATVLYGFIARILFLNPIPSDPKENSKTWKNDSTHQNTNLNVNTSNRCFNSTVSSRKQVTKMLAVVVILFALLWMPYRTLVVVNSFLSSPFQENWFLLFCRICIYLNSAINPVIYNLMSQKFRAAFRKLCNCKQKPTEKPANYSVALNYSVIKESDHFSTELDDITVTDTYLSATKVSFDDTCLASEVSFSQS
As to the kind of experiment: Receptor panel screen, ligand-receptor binding, FPAh 10 μM: Thyrotropin Releasing Hormone. An excerpt: (§1) For example, FPA was used in a screen of 150 receptors to determine which receptors FPA could interact with. One way of assessing FPA interactions is to look at the amount that FPA can modulate a given receptor relative to its natural ligand. Disclosed in tables 13 and 14 are ligand-receptor binding studies that are, for example, modulated by more than 20% (inhibition or excitation) by the human form of Fibrinopeptide-A (FPA-h).

In another assay the target is T3, Bradykinin B1 (Homo sapiens, UniProt P46663).
T3 sequence (P46663 1-353): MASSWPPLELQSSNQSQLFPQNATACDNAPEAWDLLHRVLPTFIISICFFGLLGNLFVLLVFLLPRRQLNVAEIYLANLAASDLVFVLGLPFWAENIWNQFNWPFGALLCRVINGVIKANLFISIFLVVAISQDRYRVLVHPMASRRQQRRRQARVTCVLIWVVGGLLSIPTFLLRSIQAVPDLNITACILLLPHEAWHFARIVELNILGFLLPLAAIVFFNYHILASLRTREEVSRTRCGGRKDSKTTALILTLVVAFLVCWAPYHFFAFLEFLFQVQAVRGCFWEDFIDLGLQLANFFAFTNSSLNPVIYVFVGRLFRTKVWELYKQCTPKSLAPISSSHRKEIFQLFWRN
Description: Receptor panel screen, ligand-receptor binding, FPAh 10 μM: Bradykinin B1.
Description: as §1

Assay [3] relates to Vascular endothelial growth factor. Description: Receptor panel screen, ligand-receptor binding, FPAh 10 μM: Vascular endothelial growth factor.
Description: as §1

For a further assay, the target named is T4, Estrogen ERa (Homo sapiens, UniProt P03372).
T4 sequence (P03372 1-595): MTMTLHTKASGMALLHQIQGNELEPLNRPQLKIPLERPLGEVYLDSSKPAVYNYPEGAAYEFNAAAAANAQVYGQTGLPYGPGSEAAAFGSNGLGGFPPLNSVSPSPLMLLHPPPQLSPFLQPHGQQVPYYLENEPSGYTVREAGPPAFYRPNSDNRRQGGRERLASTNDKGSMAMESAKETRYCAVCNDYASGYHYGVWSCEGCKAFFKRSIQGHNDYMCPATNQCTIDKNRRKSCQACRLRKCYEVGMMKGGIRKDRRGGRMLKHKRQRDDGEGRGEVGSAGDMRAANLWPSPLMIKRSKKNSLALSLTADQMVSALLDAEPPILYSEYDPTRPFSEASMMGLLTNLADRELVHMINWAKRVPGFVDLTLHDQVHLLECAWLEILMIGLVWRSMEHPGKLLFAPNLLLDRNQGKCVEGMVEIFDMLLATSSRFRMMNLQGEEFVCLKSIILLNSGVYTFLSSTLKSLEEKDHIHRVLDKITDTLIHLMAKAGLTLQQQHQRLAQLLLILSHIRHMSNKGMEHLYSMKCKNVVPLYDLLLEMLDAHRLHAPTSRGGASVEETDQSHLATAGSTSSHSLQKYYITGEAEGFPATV
As to the kind of experiment: Receptor panel screen, ligand-receptor binding, FPAh 10 μM: Estrogen ERa.
Description: as §1

The test system of the next assay is Potassium Channel [Ka]. Description: Receptor panel screen, ligand-receptor binding, FPAh 10 μM: Potassium Channel [Ka].
Description: as §1

Another assay addresses Serotonin 5-HT 2a (Homo sapiens, UniProt P28223). As to the kind of experiment: Receptor panel screen, ligand-receptor binding, FPAh 10 μM: Serotonin 5-HT 2a.
Description: as §1

The next assay has as its system Glutamate AMPA. Description: Receptor panel screen, ligand-receptor binding, FPAh 10 μM: Glutamate AMPA.
Description: as §1

The subject of the next assay is Cholecystokinin. As to the kind of experiment: Receptor panel screen, ligand-receptor binding, FPAh 10 μM: Cholecystokinin.
Description: as §1

Assay [4] has as its system Inositol Triphosphate IP3. As to the kind of experiment: Receptor panel screen, ligand-receptor binding, FPAh 10 μM: Inositol Triphosphate IP3.
Description: as §1

Like-named read-outs stand apart in the source and are kept apart here. Square brackets hold non-standard residues; d marks the D form. Side chains are listed from the residue outwards. Ends that are not written are not given here. Peptide text beside a SMILES is read from it. * marks the point of attachment. Acetyl(1-adamantyl) = O=C(CC12CC3CC(CC(C3)C1)C2)*; Hyp = O=C(O)[C@@H]1C[C@@H](O)CN1; 2Thi = N[C@@H](Cc1cccs1)C(=O)O; Nicotinoyl = O=C(c1cccnc1)*; Cbz = O=C(OCc1ccccc1)*

Chain of Serotonin 5-HT 2a (P28223 whole entry): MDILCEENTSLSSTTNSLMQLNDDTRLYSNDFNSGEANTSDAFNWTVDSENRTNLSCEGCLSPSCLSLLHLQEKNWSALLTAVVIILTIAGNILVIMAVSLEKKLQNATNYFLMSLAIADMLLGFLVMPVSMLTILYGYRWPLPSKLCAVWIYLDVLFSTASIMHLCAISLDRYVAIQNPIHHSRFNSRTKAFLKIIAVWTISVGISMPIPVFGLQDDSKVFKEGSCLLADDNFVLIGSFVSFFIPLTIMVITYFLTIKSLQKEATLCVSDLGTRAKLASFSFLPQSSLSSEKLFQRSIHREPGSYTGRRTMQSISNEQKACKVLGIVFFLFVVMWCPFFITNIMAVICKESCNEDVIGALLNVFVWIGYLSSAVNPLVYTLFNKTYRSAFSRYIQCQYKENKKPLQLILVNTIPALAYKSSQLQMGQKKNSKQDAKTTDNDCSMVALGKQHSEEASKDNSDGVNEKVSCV

In the case of `NC(N)=NCCC[C@H](NC(=O)[C@H](Cc1ccccc1)NC(=O)[C@@H]1CCCN1C(=O)[C@H](CO)NC(=O)[C@H](Cc1ccccc1)NC(=O)CNC(=O)[C@@H]1CCCN1C(=O)[C@@H]1CCCN1C(=O)[C@@H](N)CCCN=C(N)N)C(=O)O` [Bradykinin], in assay [1] (10 µM), the “Activity/inhibition ATII binding assay” value was determined as 12%.

For `CC[C@H](C)[C@H](NC(=O)[C@@H]1CCCN1C(=O)[C@H](Cc1c[nH]cn1)NC(=O)[C@H](CCCCNC(=O)[C@H](CCCNC(=N)N)NC(=O)OCc1ccccc1)NC(=O)[C@H](Cc1ccc(O)cc1)NC(=O)c1cccnc1)C(=O)O` [CGP-42112A, nicotinic acid-Tyr-(N-benzoylcarbonyl-Arg)Lys-His-Pro-Ile-OH, reference compound] (Nicotinoyl-YK([Arg-Cbz])HPI-OH), the nH in [1] turned out to be 1.1.

As for `CNCC(=O)N[C@@H](CCCN=C(N)N)C(=O)N[C@H](C(=O)N[C@@H](Cc1ccc(O)cc1)C(=O)N[C@H](C(=O)N[C@@H](Cc1cnc[nH]1)C(=O)N1CCC[C@H]1C(=O)N[C@@H](C)C(=O)O)C(C)C)C(C)C` [Saralasin], the nH in [1] turned out to be 0.9.

Usually inhibition stands for the share of the control response that was lost under treatment. For `N=C(N)NCCC[C@H](NC(=O)[C@H](Cc1cccs1)NC(=O)[C@@H](Cc1ccccc1)NC(=O)[C@H](CO)NC(=O)[C@H](Cc1cccs1)NC(=O)CNC(=O)[C@@H]1CCCN1C(=O)[C@@H]1CCCN1C(=O)[C@@H](N)CCCNC(=N)N)C(=O)O` [VP045] (H-RPPG[2Thi]S[dF][2Thi]R-OH), in assay [1], the inhibition at 10 µM was found to be 53%.

As for `N=C(N)NCCC[C@H](NC(=O)[C@H](Cc1cccs1)NC(=O)[C@@H](Cc1ccccc1)NC(=O)[C@H](CO)NC(=O)[C@H](Cc1cccs1)NC(=O)CNC(=O)[C@@H]1C[C@@H](O)CN1C(=O)[C@@H]1CCCN1C(=O)[C@H](CCCNC(=N)N)NC(=O)[C@@H](CCCNC(=N)N)NC(=O)CC12CC3CC(CC(C3)C1)C2)C(=O)O` [VP046] ({Acetyl(1-adamantyl)}-[dR]RP[Hyp]G[2Thi]S[dF][2Thi]R-OH), in assay [1], the inhibition at 10 µM stood at 61%.

As to `CC[C@H](C)[C@H](NC(=O)[C@@H]1CCCN1C(=O)[C@H](Cc1c[nH]cn1)NC(=O)[C@@H](NC(=O)[C@H](Cc1ccc(O)cc1)NC(=O)[C@@H](NC(=O)[C@H](CCCNC(=N)N)NC(=O)CNC)C(C)C)[C@@H](C)CC)C(=O)O` [[Sar^1, Ile^8] Angiotensin II], in assay [1], the nH turned out to be 1.0.

For “(DArg-Arg-Pro-Hyp-Gly-Thi-Ser-DTic-Oic-Arg (XRPXGXSXXR; D-residues; non-natural residues) [Hoe 140, reference compound]”, the “Activity/inhibition ATII binding assay” value in assay [1] was determined as 29%.

Regarding “ADSGE GDFLAEGGGVR (ADSGEGDFLAEGGGVR) [FPA-h, synthesized human Fibrinopeptide-A]”, the Inhibited in [2] is 23%; with Bradykinin B1, 24%; with Estrogen ERa it was 33%; with Potassium Channel [Ka], 25%; with Cholecystokinin it was 33%; in [4] it was 33%. In addition, the Stimulated in assay [3] was determined as 22%; with Serotonin 5-HT 2a it was 21%; with Glutamate AMPA it was 30%.

Turning to Arg-Pro-Pro (RPP) [Bradykinin (1-3)], in [1], the “Activity/inhibition ATII binding assay” value is recorded as −2%.

On to “Arg-Pro-Pro-Gly-Phe (RPPGF) [Bradykinin (1-5)]”, for which the “Activity/inhibition ATII binding assay” value in assay [1] was 1%.

“Arg-Pro-Pro-Gly-Phe-Ser-DPhe-Phe-Arg (RPPGFS[dF]FR) [DPhe7] Bradykinin]”: the “Activity/inhibition ATII binding assay” value in [1] is 60 9%.

As to “Arg-Pro-Pro-Gly-Thi-Ser-DPhe-Thi-Arg (RPPG[2Thi]S[dF][2Thi]R) [[Thi5,8,DPhe7] Bradykinin]”, in assay [1], the “Activity/inhibition ATII binding assay” value was 53%.

For the compound “DArg-Arg-Pro-Hyp-Gly-Igl-Ser-Dlgl-Oic-Arg (XRPXGXSXXR; D-residues; non-natural residues) [B9430]”, the “Activity/inhibition ATII binding assay” value in assay [1] is 70%.

For the compound “DArg-Arg-Pro-Hyp-Gly-Thi-Ser-Dlgl Oic-Arg (XRPXGXSXXR; D-residues; non-natural residues) [B9340]”, the “Activity/inhibition ATII binding assay” value in [1] turned out to be 35%.

Regarding “N-Adamantaneacetyl-DArg-Arg-Pro-Hyp-Gly-Thi-Ser-DPhe-Thi-Arg”, in [1], the “Activity/inhibition ATII binding assay” value came out at 61%.

Regarding “N-Admantanecarbonyl-DArg0-HyP3, Thi5,8, DPhe7] Bradykinin”, in [1], the “Activity/inhibition ATII binding assay” value amounted to 63%.

On to PPGFSP [Bradykinin (2-7)], for which, in assay [1], the “Activity/inhibition ATII binding assay” value was −6%.

Turning to PPGFSPFR [Bradykinin (2-9)], the “Activity/inhibition ATII binding assay” value in assay [1] is −13%.

For RPPGFS [Bradykinin (1-6)], the “Activity/inhibition ATII binding assay” value in assay [1] is −12%.

As for “VP042 (XRPXGXSXXR; D-residues; non-natural residues)”, in assay [1], the “% Inhibition ATII receptor” value was 29%.

Take VP043 (RPPGFS[dF]FR): the “% Inhibition ATII receptor” value in [1] was determined as 9%.

For VP052 (RPPGFSPYR), the “% Inhibition ATII receptor” value in assay [1] was −1%.

On to VP057 (RPP), for which the “% Inhibition ATII receptor” value in [1] was −2%.

On to VP058 (RPPGF), for which the “% Inhibition ATII receptor” value in assay [1] was 1%.

VP059 (RPPGFS): the “% Inhibition ATII receptor” value in assay [1] was −12%.

For VP061 (PPGFSP), the “% Inhibition ATII receptor” value in assay [1] is given as −6%.

With VP062 (PPGFSPFR), the “% Inhibition ATII receptor” value in [1] is −13%.

In the case of “VP063 (XRPXGXSXXR; D-residues; non-natural residues)”, the “% Inhibition ATII receptor” value in assay [1] was 35%.

For the compound “VP064 (XRPXGXSXXR; D-residues; non-natural residues)”, the “% Inhibition ATII receptor” value in assay [1] worked out at 70%.
